This note sets out measurements from US20160051704A1, “MOLECULAR IMAGING PROBES FOR LUNG CANCER INTRAOPERATIVE GUIDANCE” (H. Lee Moffitt Cancer Center and Research Institute, Inc., priority 2013, published 2016).

For this experiment, the target named is T1, delta opioid receptor (δOR) on HCT-116/δOR cells, P41143.
T1 chain: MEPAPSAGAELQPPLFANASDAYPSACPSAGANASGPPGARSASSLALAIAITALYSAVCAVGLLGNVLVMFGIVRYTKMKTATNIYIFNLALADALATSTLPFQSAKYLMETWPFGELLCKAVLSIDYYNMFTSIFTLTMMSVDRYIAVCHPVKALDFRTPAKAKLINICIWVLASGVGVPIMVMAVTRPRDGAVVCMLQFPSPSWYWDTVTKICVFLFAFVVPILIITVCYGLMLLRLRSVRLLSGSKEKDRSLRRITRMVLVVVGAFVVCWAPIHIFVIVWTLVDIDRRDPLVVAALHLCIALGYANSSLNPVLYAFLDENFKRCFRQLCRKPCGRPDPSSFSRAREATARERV
Nature of the experiment: in cyto time-resolved fluorescence saturation binding on HCT-116/δOR cells.

B1: Europium (Eu)-diethylenetriaminepentaacetic acid (DTPA)[D-Pen2, L-Cys5] enkephalin (DPLCE) (peptide)
chain: YCGFC
modifications: not checked
The molecule B1 gave a Bmax of 3.01e+06 AFU.
